Data: publication PMC3223204, “Implantation Serine Proteinase 1 Exhibits Mixed Substrate Specificity that Silences Signaling via Proteinase-Activated Receptors” (PLoS ONE, 2011)

Target: T1, human PAR1 (Homo sapiens, UniProt P25116)
T1 construct: The human HEK293 cells, that constitutively express both PAR1 and PAR2; endogenous in cells; host or cells: HEK293 (expressing SV40 T-antigen)
T1 sequence (P25116 22-425): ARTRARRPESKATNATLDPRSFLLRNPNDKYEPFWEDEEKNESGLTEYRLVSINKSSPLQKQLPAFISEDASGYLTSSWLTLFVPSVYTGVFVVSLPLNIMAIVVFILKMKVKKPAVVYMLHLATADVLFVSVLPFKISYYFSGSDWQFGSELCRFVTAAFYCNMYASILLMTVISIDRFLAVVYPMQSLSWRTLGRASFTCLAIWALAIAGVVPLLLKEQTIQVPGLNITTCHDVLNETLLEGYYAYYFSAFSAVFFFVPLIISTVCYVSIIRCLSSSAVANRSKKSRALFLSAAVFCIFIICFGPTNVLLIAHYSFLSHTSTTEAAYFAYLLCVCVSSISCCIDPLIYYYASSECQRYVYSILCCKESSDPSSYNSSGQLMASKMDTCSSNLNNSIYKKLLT
Experiment: Calcium signaling assay, PAR1 activation/disarming in HEK cells
Assay type: cell-based
Excerpt: The Kirsten virus-transformed normal rat kidney (KNRK) epithelial cell line expressing wild-type rat PAR2 (KNRKrPAR2), validated previously for studies of receptor activation was used to evaluate the PAR2-regulating properties of the ISP1 by the methods described previously. Human embryonic kidney cells (HEK293) that express the SV40 T-antigen were kindly provided by Dr. Jonathan Lytton, University of Calgary, Faculty of Medicine, Calgary (Alberta) Canada. The human HEK293 cells, that constitutively express both PAR1 and PAR2, were grown under similar conditions as described for the KNRK cells, but in the absence of geneticin, as outlined for the PAR-mediated calcium signaling procedure described previously. All cells were sub-cultured by dissociation in an isotonic EDTA/saline solution, pH 7.4, without the use of trypsin, to avoid cleavage of PARs.
Cell lines (grown to about 85% confluence and disaggregated with calcium-free isotonic phosphate-buffered saline containing 0.2 mM EDTA) and rat platelets (harvested from platelet-rich anti-coagulated plasma) were prepared and used as previously described. Cells were incubated for 25 min at room temperature with Fluo-3 acetoxymethyl ester (final concentration, 22 µM) along with 0.4 mM sulfinpyrazone. Cells were washed twice by centrifugation (using the following buffer without calcium) and resuspended in the calcium signaling buffer: 150 mM NaCl, 3 mM KCl, 1.5 mM CaCl2, 20 mM HEPES, 10 mM dextrose, and 0.25 mM sulfinpyrazone, pH 7.4.
Fluorescence was measured at 24 °C with an excitation wavelength of 480 nm and an emission recorded at 530 nm using an Aminco Bowman Series 2 Luminescence spectrometer (ThermoSpectronic Model FA354, Spectronic Unicam, Rochester, NY). The fluorescence signals caused by the addition of test agonists (trypsin, PAR-activating peptide or rISP1, added to 2 ml of a cell suspension of ~3 x 10^5 cells/ml) were compared with the fluorescence peak height yielded by replicate cell suspensions treated with 2 µM ionophore A23187. This concentration of A23187 was at the plateau of its concentration-response curve for a fluorescence response in Fluo-3-loaded cultured cells. Under these conditions, the calculated values for intracellular calcium in the HEK and KNRK cells were [picture] […]
Previous work has shown that the fluorescence response of a cell preparation, as a percentage relative to the signal generated by 2 µM A23187, is a valid reference standard for the comparative determination of calcium signals for all PAR agonists. The cellular calcium response was therefore recorded as a percentage of the response generated by 2 µM ionophore A23187 [6]. […]
Receptor activation was monitored as an enzyme-stimulated increase in fluorescence emission (E530). […]

Cellular response to PAR1-activating peptide after ISP1 pre-treatment (TFLLR-NH2 (5 µM), concentration-dependent): diminished
Activation of a calcium signal via PAR1 (enzyme alone): did not activate a calcium signal
residual PAR1 activity (pre-treatment with 5 Units/ml ISP1, then thrombin (0.5 units/ml)): 20%
residual PAR1 activity (pre-treatment with 20 units ISP1/ml, then thrombin (0.5 units/ml)): eliminate PAR1 activity completely
B1: ISP1: recombinant implantation serine proteinase 1 expressed in Pichia pastoris, also known as Mouse Prss28 (protein, UniProt Q924N9 27-274, looked up)
Serine protease 28: KPVGIVGGQRTPPGKWPWQVSLRMYSYEVNSWVHICGGSIIHPQWILTAAHCIQSQDADPAVYRVQVGEVYLYKEQELLNISRIIIHPDYNDVSKRFDLALMQLTALLVTSTNVSPVSLPKDSSTFDSTDQCWLVGWGNLLQRVPLQPPYQLHEVKIPIQDNKSCKRAYRKKSSDEHKAVAIFDDMLCAGTSGRGPCFGDSGGPLVCWKSNKWIQVGVVSKGIDCSNNLPSIFSRVQSSLAWIHQHIQ
modifications: recombinant, Pichia pastoris-expressed
notes: recombinant implantation serine proteinase 1 expressed in Pichia pastoris, also known as Mouse Prss28
